PMC10786404

Tests used:
[1] = target: protease activated receptor 2 (PAR2) (human (endogenous in Caco-2)) (UniProt P55085)
[2] = target: protease activated receptor 2 (PAR2) (human (endogenous in Caco-2)) (UniProt P55085); remark: listed apart in the source
[3] = target: protease activated receptor 2 (PAR2) (human (endogenous in Caco-2)) (UniProt P55085); remark: listed apart in the source
[4] = target: protease activated receptor 2 (PAR2) (human (endogenous in Caco-2)) (UniProt P55085); remark: listed apart in the source
[5] = target: protease activated receptor 2 (PAR2) (human (endogenous in Caco-2)) (UniProt P55085); remark: listed apart in the source

UniProt P55085, sequence (P55085 37-397): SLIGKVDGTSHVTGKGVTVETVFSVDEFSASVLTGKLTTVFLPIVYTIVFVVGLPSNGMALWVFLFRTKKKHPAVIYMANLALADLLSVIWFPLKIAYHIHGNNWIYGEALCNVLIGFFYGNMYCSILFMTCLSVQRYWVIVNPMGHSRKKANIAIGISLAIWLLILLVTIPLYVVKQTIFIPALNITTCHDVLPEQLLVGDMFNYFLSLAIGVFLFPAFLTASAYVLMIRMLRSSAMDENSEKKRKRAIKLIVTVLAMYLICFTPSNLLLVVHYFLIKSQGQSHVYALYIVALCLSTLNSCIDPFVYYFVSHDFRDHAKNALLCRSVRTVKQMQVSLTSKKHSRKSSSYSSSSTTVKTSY

Substance: Recombinant Trichinella spiralis trypsin, C-terminal domain (rTsTryp) (from UniProt E5RYV9 1-667)
- flux of 4 kDa FITC-dextran (FD4) through the Caco-2 monolayer, rTsTryp group against the PBS group (fold of the PBS group) [1]: 2
- promotion of IIL larval invasion of the Caco-2 monolayer by 12, 16 and 20 μg/ml rTsTryp, against the PBS group [2]: 40.2 % promotion
- level of phosphorylated ERK1/2 (Western blot) in the Caco-2 monolayer after 2 h with rTsTryp, against the PBS group [3]: 210 % increase
- ZO-1 mRNA (qPCR) in Caco-2 cells treated with rTsTryp, against the DMSO group; restored by AZ3451 pretreatment [4]: 55.9 % decrease
- occludin mRNA (qPCR) in Caco-2 cells treated with rTsTryp, against the DMSO group; restored by AZ3451 pretreatment [4]: 52.4 % decrease
- ZO-1 protein (Western blot) in the Caco-2 monolayer treated with rTsTryp, against the DMSO group; abrogated by AZ3451 pretreatment [5]: 56.5 % decrease
- occludin protein (Western blot) in the Caco-2 monolayer treated with rTsTryp, against the DMSO group; abrogated by AZ3451 pretreatment [5]: 49 % decrease
